In the supplement of paper PMC10567573:

B1: SPRY1 (parent)
chain: WIHRPGCRCKNSNTVYCKLESCPS

Variants of: B1
Assay: protein stability index of a GFP-peptide fusion (GPS, HEK-293T) (PSI 1-6); higher = more stable
Settings: c terminus: a fixed tail appended
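Note: lentivirally expressed fusions sorted by FACS into six bins by GFP to DsRed ratio, PSI derived from sequencing read proportions per bin multiplied by bin number.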

Compared with WIHRPGCRCDNSNTVYCKLESCPS [K10D], WIHRPGCRCHNSNTVYCKLESCPS [K10H] is lower in protein stability index: 3.1 for the first, 2.77 for the second.

First: WIHRPGCRCINSNTVYCKLESCPS [K10I]
Second: WIHRPGCRCVNSNTVYCKLESCPS [K10V]
The protein stability index of the first is higher: 2.88 for the first, 2 for the second.

Going from WIHRPGCRCPNSNTVYCKLESCPS [K10P] to WIHRPGCRCSNSNTVYCKLESCPS [K10S], the protein stability index falls from 2.73 to 2.26.

Compared with WIHRPGCRCQNSNTVYCKLESCPS [K10Q], WIHRPGCRCENSNTVYCKLESCPS [K10E] is lower in protein stability index: 2.81 for the first, 2.73 for the second.

Going from WIHRPGCRCLNSNTVYCKLESCPS [K10L] to WIHRPGCRCTNSNTVYCKLESCPS [K10T], the protein stability index rises from 1.96 to 3.11.

First: WIHRPGCRCNNSNTVYCKLESCPS [K10N]
Second: WIHRPGCRCCNSNTVYCKLESCPS [K10C]
The protein stability index of the first is higher: 2.75 for the first, 1.88 for the second.

First: WIHRPGCRCWNSNTVYCKLESCPS [K10W]
Second: WIHRPGCRCMNSNTVYCKLESCPS [K10M]
The protein stability index of the first is higher: 2.41 for the first, 1.63 for the second.

Going from WIHRPGCRCRNSNTVYCKLESCPS [K10R] to WIHRPGCRCGNSNTVYCKLESCPS [K10G], the protein stability index rises from 2.21 to 2.75.

Going from WIHRPGCRCANSNTVYCKLESCPS [K10A] to WIHRPGCRCYNSNTVYCKLESCPS [K10Y], the protein stability index falls from 2.33 to 1.82.

Going from WIHRPGCRCFNSNTVYCKLESCPS [K10F] to WIHRPGCRPKNSNTVYCKLESCPS [C9P], the protein stability index rises from 1.74 to 2.4.

First: WIHRPGCRRKNSNTVYCKLESCPS [C9R]
Second: WIHRPGCRWKNSNTVYCKLESCPS [C9W]
The protein stability index of the first is lower: 1.45 for the first, 2.04 for the second.

First: WIHRPGCRGKNSNTVYCKLESCPS [C9G]
Second: WIHRPGCRNKNSNTVYCKLESCPS [C9N]
The protein stability index of the first is lower: 1.73 for the first, 1.97 for the second.

First: WIHRPGCRTKNSNTVYCKLESCPS [C9T]
Second: WIHRPGCRSKNSNTVYCKLESCPS [C9S]
The protein stability index of the first is lower: 1.49 for the first, 3.7 for the second.

Going from WIHRPGCRLKNSNTVYCKLESCPS [C9L] to WIHRPGCRHKNSNTVYCKLESCPS [C9H], the protein stability index falls from 2.69 to 1.85.

First: WIHRPGCRKKNSNTVYCKLESCPS [C9K]
Second: WIHRPGCRQKNSNTVYCKLESCPS [C9Q]
The protein stability index of the first is lower: 1.84 for the first, 2 for the second.

First: WIHRPGCRIKNSNTVYCKLESCPS [C9I]
Second: WIHRPGCRVKNSNTVYCKLESCPS [C9V]
The protein stability index of the first is lower: 1.17 for the first, 3.41 for the second.

First: WIHRPGCRCKNSLTVYCKLESCPS [N13L]
Second: WIHRPGCRCKNSYTVYCKLESCPS [N13Y]
The protein stability index of the first is lower: 2.31 for the first, 2.73 for the second.

Going from WIHRPGCRCKNSITVYCKLESCPS [N13I] to WIHRPGCRCKNSATVYCKLESCPS [N13A], the protein stability index rises from 1.67 to 1.92.

First: WIHRPGCRCKNSDTVYCKLESCPS [N13D]
Second: WIHRPGCRCKNSTTVYCKLESCPS [N13T]
The protein stability index of the first is higher: 3.17 for the first, 2.4 for the second.

First: WIHRPGCRCKNSCTVYCKLESCPS [N13C]
Second: WIHRPGCRCKNSVTVYCKLESCPS [N13V]
The protein stability index of the first is higher: 2.1 for the first, 2.04 for the second.

Compared with WIHRPGCRCKNSMTVYCKLESCPS [N13M], WIHRPGCRCKNSPTVYCKLESCPS [N13P] is lower in protein stability index: 2.74 for the first, 2.36 for the second.

Going from WIHRPGCRCKNSGTVYCKLESCPS [N13G] to WIHRPGCRCKNSWTVYCKLESCPS [N13W], the protein stability index rises from 2.23 to 2.81.

First: WIHRPGCRCKNSETVYCKLESCPS [N13E]
Second: WIHRPGCRCKNSRTVYCKLESCPS [N13R]
The protein stability index of the first is higher: 2.64 for the first, 1.88 for the second.

First: WIHRPGCRCKNSKTVYCKLESCPS [N13K]
Second: WIHRPGCRCKNSSTVYCKLESCPS [N13S]
The protein stability index of the first is lower: 1.17 for the first, 2.06 for the second.

First: WIHRPGCRCKNSQTVYCKLESCPS [N13Q]
Second: WIHRPGCRCKNSFTVYCKLESCPS [N13F]
The protein stability index of the first is lower: 2.26 for the first, 2.3 for the second.

First: WIHRPGCRCKNSHTVYCKLESCPS [N13H]
Second: WIHRPGCRCKNNNTVYCKLESCPS [S12N]
The protein stability index of the first is lower: 1.91 for the first, 2.12 for the second.

First: WIHRPGCRCKNINTVYCKLESCPS [S12I]
Second: WIHRPGCRCKNPNTVYCKLESCPS [S12P]
The protein stability index of the first is higher: 2.4 for the first, 1.65 for the second.

First: WIHRPGCRCKNRNTVYCKLESCPS [S12R]
Second: WIHRPGCRCKNVNTVYCKLESCPS [S12V]
The protein stability index of the first is lower: 2.03 for the first, 2.2 for the second.

Compared with WIHRPGCRCKNGNTVYCKLESCPS [S12G], WIHRPGCRCKNFNTVYCKLESCPS [S12F] is lower in protein stability index: 3.79 for the first, 2.1 for the second.

Going from WIHRPGCRCKNQNTVYCKLESCPS [S12Q] to WIHRPGCRCKNHNTVYCKLESCPS [S12H], the protein stability index falls from 2.14 to 1.4.

Compared with WIHRPGCRCKNANTVYCKLESCPS [S12A], WIHRPGCRCKNENTVYCKLESCPS [S12E] is lower in protein stability index: 3.15 for the first, 2.71 for the second.

Compared with WIHRPGCRCKNDNTVYCKLESCPS [S12D], WIHRPGCRCKNWNTVYCKLESCPS [S12W] is lower in protein stability index: 2.16 for the first, 1.73 for the second.

Compared with WIHRPGCRCKNTNTVYCKLESCPS [S12T], WIHRPGCRCKNYNTVYCKLESCPS [S12Y] is lower in protein stability index: 2.28 for the first, 1.97 for the second.

Going from WIHRPGCRCKNMNTVYCKLESCPS [S12M] to WIHRPGCRCKNLNTVYCKLESCPS [S12L], the protein stability index rises from 2.33 to 3.01.

First: WIHRPGCRCKNCNTVYCKLESCPS [S12C]
Second: WIHRPGCRCKNKNTVYCKLESCPS [S12K]
The protein stability index of the first is higher: 3.25 for the first, 2.32 for the second.

Going from WIHRPGCRCKASNTVYCKLESCPS [N11A] to WIHRPGCRCKHSNTVYCKLESCPS [N11H], the protein stability index falls from 3.47 to 2.52.

First: WIHRPGCRCKQSNTVYCKLESCPS [N11Q]
Second: WIHRPGCRCKESNTVYCKLESCPS [N11E]
The protein stability index of the first is lower: 2.41 for the first, 2.62 for the second.

Compared with WIHRPGCRCKVSNTVYCKLESCPS [N11V], WIHRPGCRCKSSNTVYCKLESCPS [N11S] is lower in protein stability index: 3.49 for the first, 2.7 for the second.

First: WIHRPGCRCKPSNTVYCKLESCPS [N11P]
Second: WIHRPGCRCKMSNTVYCKLESCPS [N11M]
The protein stability index of the first is lower: 2.27 for the first, 2.66 for the second.

Going from WIHRPGCRCKWSNTVYCKLESCPS [N11W] to WIHRPGCRCKDSNTVYCKLESCPS [N11D], the protein stability index rises from 2.6 to 2.88.

Going from WIHRPGCRCKYSNTVYCKLESCPS [N11Y] to WIHRPGCRCKKSNTVYCKLESCPS [N11K], the protein stability index rises from 2.07 to 2.19.

Compared with WIHRPGCRCKCSNTVYCKLESCPS [N11C], WIHRPGCRCKISNTVYCKLESCPS [N11I] is higher in protein stability index: 1.83 for the first, 1.86 for the second.

Compared with WIHRPGCRCKRSNTVYCKLESCPS [N11R], WIHRPGCRCKTSNTVYCKLESCPS [N11T] is lower in protein stability index: 4.1 for the first, 2.1 for the second.

Compared with WIHRPGCRCKGSNTVYCKLESCPS [N11G], WIHRPGCRCKFSNTVYCKLESCPS [N11F] is higher in protein stability index: 2.15 for the first, 2.42 for the second.

Going from WIHRPGCRCKLSNTVYCKLESCPS [N11L] to WIHRPGCRCKNSNDVYCKLESCPS [T14D], the protein stability index rises from 2.51 to 3.07.

Compared with WIHRPGCRCKNSNCVYCKLESCPS [T14C], WIHRPGCRCKNSNFVYCKLESCPS [T14F] is lower in protein stability index: 2.56 for the first, 1.9 for the second.

First: WIHRPGCRCKNSNAVYCKLESCPS [T14A]
Second: WIHRPGCRCKNSNEVYCKLESCPS [T14E]
The protein stability index of the first is higher: 2.89 for the first, 2.84 for the second.
